Measurements reported in patent US8673579B2, “Peptide probes for diagnostics and therapeutics” (priority 2006, dated 2014).
pyrene = pyrene fluorescent label

Key:
PrP^Sc [1] = biological target: T1, PrP^Sc (Ovis aries, UniProt P23907)
PrP^Sc [2] = biological target: T1, PrP^Sc; remark: listed apart in the source
PrP^Sc [3] = biological target: T2, PrP^Sc (Mesocricetus auratus, UniProt P04273)
PrP^Sc [4] = biological target: T2, PrP^Sc; remark: listed apart in the source
[5] = Circular dichroism secondary structure calculation; format: physicochemical; settings: circular dichroism in 30% TFE/Tris, CDPRO deconvolution
Aβ42 = Aβ42 (Homo sapiens, UniProt P05067); experiment: Pyrene-labeled peptide probe fluorescence with structural forms of Aβ42; format: binding
Chain of Aβ42 (P05067 672-713): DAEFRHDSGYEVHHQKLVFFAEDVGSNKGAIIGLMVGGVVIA
From the text: (§1) A peptide probe specific for Aβ (SEQ ID NO:36) is used to detect specific structural forms of Aβ40 and Aβ42. The peptide probe is labeled at each terminus with pyrene. The peptide probe is contacted with different samples comprising Aβ42 oligomers, Aβ40 oligomers, and Aβ40 monomers.
(§2) Interaction between the peptide probe and sample is detected by excitation at 350 nm and scanning fluorescence from 360 to 600 nm. […] FIG. 11A (fibers and monomer) & 11B (oligomers).

Aβ plaques [6] = biological target: T3, Aβ plaques (Homo sapiens, UniProt P05067); experiment: In vitro staining of brain sections from hAPP751SL transgenic mice; format: binding
T3 sequence (P05067 672-713 limits assumed): as the sequence (P05067 672-713) above
Experimental: The following illustrates the ability of peptide probes to target Aβ plaques (e.g., insoluble self-aggregates of Aβ protein associated with Alzheimer's disease) both in vitro and in vivo. A peptide probe specific for Aβ (SEQ ID NO:36) and labeled at each terminus with pyrene is used.
In vitro studies are carried out on brain sections from transgenic mice over-expressing human APP751 with London and Swedish mutations (hAPP751SL). This protein is an Aβ mutant that forms neuritic plaques in the transgenic mice. Tissue from non-transgenic littermate mice served as control tissue.
Two different types of tissue slices are evaluated: cyro-cut (frozen and sliced) and paraffin embedded and sliced. The peptide probe is incubated on the brain slices and binding of the peptide probe to the brain, and to the amyloid deposits/plaques in particular, are qualitatively evaluated. For reference purposes, consecutive slices are immunohistochemically stained with an anti-Aβ antibody, the 6E10 antibody or Thioflavin S. The use of anti-Aβ controls confirms the specificity of the staining on neuritic plaques.
Images are recorded on a Nikon E800 microscope with a mounted PixelFly camera. For tiled image recordings, the microscope is equipped with a StagePro software controlled automatic table. Images of peptide probe staining and antibody and ThioflavinS staining, respectively, are overlaid in Adobe Photo Shop software
In the latter samples, cells from the neuronal layer of the hippocampus are marked, as are brain tissue around plaques in the cortex. Thus, the quality of the stain may be better on paraffin sections.

Aβ40 = Aβ40 (Homo sapiens, UniProt P05067); experiment: Pyrene-labeled peptide probe fluorescence with structural forms of Aβ40; format: binding
Chain of Aβ40 (P05067 672-711): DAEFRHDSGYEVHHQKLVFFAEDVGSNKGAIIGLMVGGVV
From the text: as §1, §2

[7] = system: Aβ40 and Aβ42 in human serum; experiment: Detection of Aβ in human serum with immobilized biotinylated peptide probe; format: binding; settings: 200 μL serum; biotinylated probe on streptavidin magnetic beads, then 2 μM dipyrene-labeled probe 3-5 hours
Experimental: Biotinylated peptide probe is immobilized to Dynal magnetic beads coated with streptavidin. These beads are incubated directly with the serum samples for 1 hour, then the magnetic beads and the captured material are pulled down to remove the serum samples.

Aβ plaques [8] = biological target: T3, Aβ plaques
[9] = system: Aβ40 and Aβ42 in human cerebrospinal fluid (CSF); experiment: Detection of Aβ in human CSF samples (excimer/monomer fluorescence ratio); format: binding; settings: 40 μL CSF, 2 μM dipyrene-labeled probe, 1 hour; ratio 430-530 nm over 370-385 nm
From the text: A peptide probe specific for Aβ (SEQ ID NO:36) is used to detect Aβ40 and Aβ42 in samples of human cerebrospinal fluid (CSF) obtained from Alzheimer's patients and from age-matched healthy patients. […] The data is presented in FIG. 12 as the ratio of the […] region (430-530 nm) over the monomeric region (370-385 nm). […] FIG. 12A presents the data for each patient, while FIG. 12B presents the average data for each patient group.

[10] = general statement in description
[11] = probe labeled at each terminus with pyrene, excitation 350 nm, scan 360 to 600 nm
[12] = intranasal labeled peptide probe

T1 sequence (P23907 25-233 limits assumed): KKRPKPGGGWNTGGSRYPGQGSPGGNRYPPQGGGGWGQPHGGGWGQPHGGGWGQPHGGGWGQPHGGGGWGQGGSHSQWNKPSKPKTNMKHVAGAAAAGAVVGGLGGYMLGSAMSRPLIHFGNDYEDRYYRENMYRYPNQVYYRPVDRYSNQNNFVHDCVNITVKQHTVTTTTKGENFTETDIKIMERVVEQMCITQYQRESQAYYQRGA
T2 sequence (P04273 23-231 limits assumed): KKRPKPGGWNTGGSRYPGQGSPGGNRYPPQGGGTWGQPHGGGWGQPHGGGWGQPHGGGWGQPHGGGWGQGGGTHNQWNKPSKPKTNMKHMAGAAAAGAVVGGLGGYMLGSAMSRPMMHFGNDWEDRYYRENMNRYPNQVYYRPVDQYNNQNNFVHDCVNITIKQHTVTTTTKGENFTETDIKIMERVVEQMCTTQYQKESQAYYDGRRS

Substance: VVAGAAAAGAVHKMNTKPKMKHVAGAAAAGAVV [SEQ ID NO:43]
- relative reactivity with sheep blood components (PrP^Sc [1]): buffy coat>serum>plasma
- effect of sample sonication on signal-to-noise (PrP^Sc [2]): improved the signal-to-noise ration
- reactivity with PrP^Sc in sera from infected sheep (PrP^Sc [2]): reacted
- reactivity with sera from normal sheep (PrP^Sc [2]): did not react
- sensitivity (PrP^Sc [2]): 100%
- specificity (PrP^Sc [2]): 100%
- reactivity with smaller versus larger PrP^Sc aggregates (PrP^Sc [3]): reacts with smaller PrP^Sc aggregates over larger PrP^Sc aggregates
- reactivity after sonication of samples (PrP^Sc [4]): increased reactivity

Substance: oligomers of Aβ42: sample of oligomers of Aβ42 including dimers, trimers, tetramers, hexamers and 12-mers
- turn/unordered structure [5]: 45.4%
- β strand (sheet) structure [5]: 52.7%

Substance: KLVFFAEDVGSNKGAIIGLM [SEQ ID NO:36, peptide probe specific for Aβ: Aβ 17-35 with additional N-terminal lysine]
- turn/unordered structure [5]: 55.5%
- α helix structure [5]: 19.4%
- β strand (sheet) structure [5]: 25.1%
- specific reaction with Aβ42 monomers (Aβ42; [10]): do not specifically react
- specific reaction with Aβ42 oligomers (Aβ42; [10]): specifically react
- dose-dependent reaction with Aβ42 fibers (Aβ42; [11]): reacts
- dose-dependent reaction with Aβ42 oligomers (Aβ42; [11]): reacts
- staining of human amyloid peptide bearing blood vessels (Aβ plaques [6]; hAPP751SL transgenic brain slices): specifically stained
- plaque specificity of staining, paraffin versus cryo-cut slices (Aβ plaques [6]; overlay with antibody staining of consecutive slices): staining on paraffin slices is more specific to plaques than staining on cryo-cut slices
- staining of plaques on brain slices (Aβ plaques [6]; paraffin or cryo-cut slices, dipyrene-labeled probe): plaque-specific staining is apparent
- specific reaction with Aβ40 monomers (Aβ40; [10]): do not specifically react
- specific reaction with Aβ40 oligomers (Aβ40; [10]): specifically react
- dose-dependent reaction with Aβ40 fibers (Aβ40; [11]): reacts
- dose-dependent reaction with Aβ40 monomer (Aβ40; [11]): dose not react
- dose-dependent reaction with Aβ40 oligomers (Aβ40; [11]): reacts
- stratification of Alzheimer's patients from age-matched healthy patients [7]: able to stratify
- binding in brain of hAPP751SL transgenic mice (Aβ plaques [8]; [12]): binds to the amyloid and agglomerates outside the blood vessel in the brain
- distribution and binding in brain of nontransgenic mice (Aβ plaques [8]; [12]): reaches the olfactory bulb, but does not bind to a specifiable morphological structure
- crossing of the blood-brain barrier (BBB) (Aβ plaques [8]; mouse, in vivo): crosses the blood-brain barrier
- stratification of Alzheimer's patients from age-matched healthy patients [9]: able to stratify

Substance: Aβ42 fibers: fibers of Aβ42 amyloid beta protein used as sample
- turn/unordered structure [5]: 27.2%
- α helix structure [5]: 12.6%
- β strand (sheet) structure [5]: 60.2%

Substance: labeled peptide probe: peptide probe specific for Aβ (SEQ ID NO:36) labeled at each terminus with pyrene (pyrene-KLVFFAEDVGSNKGAIIGLM-pyrene)
- turn/unordered structure [5]: 54.1%
- α helix structure [5]: 18.3%
- β strand (sheet) structure [5]: 27.6%

Substance: Aβ40 fibers: fibers of Aβ40 amyloid beta protein used as sample
- turn/unordered structure [5]: 35.9%
- α helix structure [5]: 5.6%
- β strand (sheet) structure [5]: 58.4%
